# Data from patent US20170106021A1, “COMPOSITIONS ENRICHED FOR HOX11+ STEM CELLS AND METHODS OF PREPARING THE SAME” (The General Hospital Corporation, priority 2014, published 2017).
# B1: granulocyte colony-stimulating factor (protein, UniProt P09919 31-207, looked up)
# Granulocyte …: TPLGPASSLPQSFLLKCLEQVRKIQGDGAALQEKLVSECATYKLCHPEELVLLGHSLGIPWAPLSSCPSQALQLAGCLSQLHSGLFLYQGLLQALEGISPELGPTLDTLQLDVADFATTIWQQMEELGMAPALQPTQGAMPAFASAFQRRAGGVLVASHLQSFLEVSYRVLRHLAQP
# notes: cytokine mobilization agent administered to donors to mobilize stem cells to peripheral blood
# Experiments:
# mobilized stem cells = details: plerixafor 240 μg/kg; cited from earlier work
# [1] = tested on: Hox11 mRNA expression in PBLs; assay: Quantitative real-time PCR of Hox11 mRNA in peripheral blood lymphocytes (PBLs) of donors; type: in vivo, human; details: PBLs from G-CSF treated donors (mobilized, n=18) vs non-treated donors (non-mobilized, n=10); normalized to β-actin; p=0.000013; FIGS. 1B, 1D
# Protocol: (§1) All −70° C. frozen human peripheral blood cell samples used for this study were either from the Core Center of Excellence in Hematology (CCEH) at the Fred Hutchison Cancer Research Center or from Massachusetts General Hospital (MGH). These peripheral blood samples were obtained from donors not treated (non-mobilized samples) or treated with recombinant G-CSF (mobilized samples). Additional samples include peripheral blood samples from G-CSF treated donors that were further enriched for CD34+ stem cells. The non-mobilized, mobilized, and CD34+ stem cell enriched samples were obtained following human consent protocol 985.03-2 from Fred Hutchison Cancer Research Center. Additional fresh peripheral blood lymphocytes (PBLs) that were used to standardize the mRNA expressions of the frozen PBLs samples were obtained following human consent protocol MGH-2001P001379 from MGH, which involved the obligatory informed consent of all subjects.
# (§2) Peripheral blood lymphocytes (PBLs) isolated from peripheral blood samples through leukapheresis were thawed in 37° C. water bath and washed with PBS+1% FBS twice. […] Quantitative real-time PCR was performed using Power SYBR Green reagent (Applied Biosystems, Foster City, Calif.) and the 7000 Real-Time PCR System.
# (§3) Relative mRNA expression was calculated using a comparative count method (ddCT method). […]
# [2] = tested on: CD34 mRNA expression in PBLs; assay: Quantitative real-time PCR of CD34 mRNA in peripheral blood lymphocytes (PBLs) of donors; type: in vivo, human; details: PBLs from G-CSF treated donors (mobilized, n=18) vs non-treated donors (non-mobilized, n=10); normalized to β-actin; p=0.02; FIGS. 1A, 1C
# Protocol: as §1, §2, §3
Molecule,time at which the number of mobilized stem cells peaks after administration (mobilized stem cells) [h],Hox11 mRNA expression (relative quantity) [1],CD34 mRNA expression (relative quantity) [2]
c1cc(CN2CCCNCCNCCCNCC2)ccc1CN1CCCNCCNCCCNCC1 [plerixafor],4 to 10,–,–
B1,–,exclusively found in PBLs isolated from mobilized peripheral blood samples,exclusively found in PBLs isolated from mobilized peripheral blood samples
